Values joined by “and” are separate entries in the source; they are usually repeats but may differ in a detail not shown here. Equal entries are not always repeated.
Conditions: whole UniProt chain shown
[1] = Bos taurus, pH 7.4, 23 °C, GdnHCl, CD, Sodium phosphate 200 mM, reversible: yes
[2] = Dictyostelium discoideum, pH 7.5, Thermal, DSC, HEPES-NaOH 50 mM, reversible: no
[3] = Dictyostelium discoideum, pH 7.5, Thermal, DSC, HEPES-NaOH 50 mM, transition: 3, reversible: no
[4] = Dictyostelium discoideum, pH 7.5, Thermal, DSC, HEPES-NaOH 50 mM, transition: 3, reversible: yes
[5] = Dictyostelium discoideum, pH 8, 25 °C, Urea, Absorbance, Tris-acetate 83 mM, reversible: yes
[6] = Bos taurus, pH 6.8, 27 °C, GdnHCl, Absorbance, Sodium phosphate 50 mM, NaCl 50 mM, reversible: no
[7] = Bos taurus, pH 7.2, Thermal, DSC, phosphate 20 mM, transition: 3, reversible: no
[8] = Bos taurus, pH 7.5, 25 °C, Urea, CD, Tris-HCl 20 mM, reversible: yes
[9] = Bos taurus, pH 9, 25 °C, Urea, CD, Tris-HCl 20 mM, reversible: yes
[10] = Drosophila melanogaster, pH 6.5, 25 °C, Urea, Fluorescence, sodium phosphate 20 mM
[11] = Bos taurus, pH 7, 25 °C, GdnHCl, Absorbance, MOPS 30 mM, reversible: yes
[12] = Bos taurus, pH 7, 25 °C, GdnHCl, Fluorescence, MOPS 30 mM, reversible: yes
[13] = Bos taurus, pH 7, 25 °C, GdnSCN, Fluorescence, MOPS 30 mM, reversible: YES
[14] = Bos taurus, pH 7.2, 25 °C, Urea, CD, Phosphate 20 mM, reversible: yes
[15] = Bos taurus, pH 7.4, Thermal, DSC, sodium phosphate 50 mM, reversible: yes
[16] = Drosophila melanogaster, pH 6, 5 °C, GdnHCl, CD, sodium phosphate 50 mM, reversible: yes
[17] = Drosophila melanogaster, pH 6, 5 °C, GdnHCl, Fluorescence, sodium phosphate 50 mM, Na2SO4 0.4 M, reversible: yes
[18] = Drosophila melanogaster, pH 6, Thermal, CD, sodium phosphate 50 mM, Na2SO4 0.4 M, reversible: yes
[19] = Enterobacteria phage T4, pH 8, Thermal, DSC, Tris-HCl 10 mM, NaCl 200 mM, reversible: yes
[20] = Cavia porcellus, pH 7.4, 25 °C, Urea, CD, NaPi 0.01 M, NaCl 0.15 M, reversible: Yes
[21] = Cavia porcellus, pH 7.4, Thermal, DSC, NaPi 0.01 M, NaCl 0.15 M, reversible: No
[22] = Enterobacteria phage 434, pH 6, 20 °C, Urea, Fluorescence, KH2PO4 25 mM, KCl 100 mM, reversible: yes(>95%)
[23] = Enterobacteria phage 434, pH 6, 20 °C, Urea, far-UV CD, KH2PO4 25 mM, KCl 100 mM, reversible: yes(>95%)
[24] = Enterobacteria phage 434, pH 7, Thermal, DSC, K-phosphate 20 mM
[25] = Canis lupus familiaris, pH 4.5, 25 °C, GdnHCl, CD, acetate 50 mM, CaCl2 2 mM
[26] = Canis lupus familiaris, pH 4.5, Thermal, DSC, Sodium acetate/glycine-HCl 50 mM/50 mM/, transition: 3, reversible: yes

B1: Lysozyme C wild type, P00708 (protein)
chain: KDIPRCELVKILRRHGFEGFVGKTVANWVCLVKHESGYRTTAFNNNGPNSRDYGIFQINSKYWCNDGKTRGSKNACNINCSKLRDDNIADDIQCAKKIAREARGLTPWVAWKKYCQGKDLSSYVRGC
Tm (Columba livia, pH 6, Thermal, CD, MES 50 mM, potassium chloride 100 mM, transition: 3): 70 °C

B2: Thiosulfate sulfurtransferase wild type, P00586 (protein)
chain: MVHQVLYRALVSTKWLAESVRAGKVGPGLRVLDASWYSPGTREARKEYLERHVPGASFFDIEECRDKASPYEVMLPSEAGFADYVGSLGISNDTHVVVYDGDDLGSFYAPRVWWMFRVFGHRTVSVLNGGFRNWLKEGHPVTSEPSRPEPAIFKATLNRSLLKTYEQVLENLESKRFQLVDSRAQGRYLGTQPEPDAVGLDSGHIRGSVNMPFMNFLTEDGFEKSPEELRAMFEAKKVDLTKPLIATCRKGVTACHIALAAYLCGKPDVAIYDGSWFEWFHRAPPETWVSQGKGGKA
denaturant m value [1]: 2.34 kcal/mol/M
unfolding free energy [1]: 3.39 kcal/mol

B3: Beta-crystallin B2 wild type, P02522 (protein)
chain: MASDHQTQAGKPQPLNPKIIIFEQENFQGHSHELNGPCPNLKETGVEKAGSVLVQAGPWVGYEQANCKGEQFVFEKGEYPRWDSWTSSRRTDSLSSLRPIKVDSQEHKITLYENPNFTGKKMEVIDDDVPSFHAHGYQEKVSSVRVQSGTWVGYQYPGYRGLQYLLEKGDYKDSGDFGAPQPQVQSVRRIRDMQWHQRGAFHPSS
Tm (Bos taurus, pH 7.2, Thermal, fluorescence, sodium phospahte 20 mM, NaCl, transition: 2): 56.8 °C

B4: Nucleoside diphosphate kinase, mitochondrial wild type, P34093 (protein)
chain: MFSRFARAFPKILASGASQRTFATVQKAFANPTSKKLIVGSSLLIGSAFATTSFVACENKSVPLVGLPGTNQERSFIAIKVSSTQRRLIGEIIARFEKKGFKLVGIKILVPTPEHAAKHYEDLNKKPFFNGLVKFFSSGAVVAMVFEGKDVVRTGRVLIGATDPSQSAPGTIRFDLCIETGRNIIHGSDSNESAAHEIALWFKEDEIANWVSTNPVYEKM
Tm [2]: 61.8 °C
unfolding enthalpy (calorimetric) [2]: 785 kcal/mol
Tm [3]: 55.7 °C
unfolding enthalpy (calorimetric) [3]: 319 kcal/mol
Tm [4]: 37.5 °C
unfolding enthalpy (calorimetric) [4]: 97 kcal/mol
denaturant m value [5]: 1.71 kcal/mol/M
unfolding free energy [5]: 5.42 kcal/mol

B5: Spermadhesin-1 wild type, P29392 (protein)
chain: MKLSSVIPWALLLSTATVDSMDWLPRNTNCGGILKEESGVIATYYGPKTNCVWTIQMPPEYHVRVSIQYLQLNCNKESLEIIDGLPGSPVLGKICEGSLMDYRSSGSIMTVKYIREPEHPASFYEVLYFQDPQA
Tm (Bos taurus, pH 7, Thermal, DSC, sodium phosphate 10 mM, reversible: no): 78.6 °C

B6: Gamma-crystallin B wild type, P02526 (protein)
chain: MGKITFYEDRGFQGHCYECSSDCPNLQPYFSRCNSIRVDSGCWMLYERPNYQGHQYFLRRGDYPDYQQWMGFNDSIRSCRLIPQHTGTFRMRIYERDDFRGQMSEITDDCPSLQDRFHLTEVHSLNVLEGSWVLYEMPSYRGRQYLLRPGEYRRYLDWGAMNAKVGSLRRVMDFY
denaturant m value [6]: 1.3 kcal/mol/M and 0.9 kcal/mol/M
denaturant midpoint (higher = more stable) [6]: 3 M and 1.3 M
unfolding enthalpy (calorimetric) (Bos taurus, pH 7.2, Thermal, DSC, phosphate 20 mM, reversible: no): 82.3 kcal/mol and 149 kcal/mol and 90 kcal/mol
unfolding enthalpy (calorimetric) [7]: 126 kcal/mol and 148 kcal/mol
unfolding enthalpy (van 't Hoff) [7]: 110 kcal/mol and 71 kcal/mol

B7: Pepsin A wild type, P00792 (protein)
chain: MSVVKIPLVKKKSLRQNLIENGKLKEFMRTHKYNLGSKYIREAATLVSEQPLQNYLDTEYFGTIGIGTPAQDFTVIFDTGSSNLWVPSIYCSSEACTNHNRFNPQDSSTYEATSETLSITYGTGSMTGILGYDTVQVGGISDTNQIFGLSETEPGSFLYYAPFDGILGLAYPSISSSGATPVFDNIWDQGLVSQDLFSVYLSSNEESGSVVIFGDIDSSYYSGSLNWVPVSVEGYWQITVDSITMNGESIACSDGCQAIVDTGTSLLAGPTTAISNIQSYIGASEDSSGEVVISCSSIDSLPDIVFTINGVQYPVPPSAYILQSNGICSSGFEGMDISTSSGDLWILGDVFIRQYFTVFDRGNNQIGLAPVA
unfolding free energy [8]: 6.36 kcal/mol
unfolding free energy [9]: 2.72 kcal/mol

B8: Chymosin wild type, P00794 (protein)
chain: MRCLVVLLAVFALSQGAEITRIPLYKGKSLRKALKEHGLLEDFLQKQQYGISSKYSGFGEVASVPLTNYLDSQYFGKIYLGTPPQEFTVLFDTGSSDFWVPSIYCKSNACKNHQRFDPRKSSTFQNLGKPLSIHYGTGSMQGILGYDTVTVSNIVDIQQTVGLSTQEPGDVFTYAEFDGILGMAYPSLASEYSIPVFDNMMNRHLVAQDLFSVYMDRNGQESMLTLGAIDPSYYTGSLHWVPVTVQQYWQFTVDSVTISGVVVACEGGCQAILDTGTSKLVGPSSDILNIQQAIGATQNQYGEFDIDCDNLSYMPTVVFEINGKMYPLTPSAYTSQDQGFCTSGFQSENHSQKWILGDVFIREYYSVFDRANNLVGLAKAI
unfolding free energy [8]: 6.45 kcal/mol
unfolding free energy [9]: 3.56 kcal/mol and 3.47 kcal/mol

B9: General odorant-binding protein lush wild type, O02372 (protein)
chain: MKHWKRRSSAVFAIVLQVLVLLLPDPAVAMTMEQFLTSLDMIRSGCAPKFKLKTEDLDRLRVGDFNFPPSQDLMCYTKCVSLMAGTVNKKGEFNAPKALAQLPHLVPPEMMEMSRKSVEACRDTHKQFKESCERVYQTAKCFSENADGQFMWP
denaturant m value [10]: 1.24 kcal/mol/M and 1.76 kcal/mol/M and 1.77 kcal/mol/M
denaturant midpoint (higher = more stable) [10]: 2.39 M and 2.98 M and 4.11 M
unfolding free energy [10]: 3.02 kcal/mol and 5.26 kcal/mol and 7.35 kcal/mol

B10: Cytochrome b5 wild type, P00171 (protein)
chain: MAEESSKAVKYYTLEEIQKHNNSKSTWLILHYKVYDLTKFLEEHPGGEEVLREQAGGDATENFEDVGHSTDARELSKTFIIGELHPDDRSKITKPSESIITTIDSNPSWWTNWLIPAISALFVALIYHLYTSEN
unfolding free energy (Bos taurus, pH 7, 10 °C, GdnHCl, Fluorescence, MOPS 30 mM, reversible: yes): 2.77 kcal/mol
denaturant midpoint (higher = more stable) (Bos taurus, pH 7, 25 °C, GdmSCN, UV/visible spectrophotometer, MOPS 30mM): 1.52 M
denaturant m value [11]: 2.14 kcal/mol/M
denaturant midpoint (higher = more stable) [11]: 3.05 M
unfolding free energy [11]: 6.57 kcal/mol
denaturant m value [12]: 2.05 kcal/mol/M
denaturant midpoint (higher = more stable) [12]: 2.99 M
unfolding free energy [12]: 6.09 kcal/mol
denaturant m value [13]: 2.4 kcal/mol/M and 1.7 kcal/mol/M
unfolding free energy [13]: 3.2 kcal/mol and 2.7 kcal/mol
unfolding free energy (Bos taurus, pH 7, 25 °C, Thermal, DSC, sodium phosphate 50 mM, reversible: yes): 5.98 kcal/mol
Tm (Bos taurus, pH 7, Thermal, Fluorescence, potassium phosphate 50 mM, reversible: YES): 85.5 °C
Tm (Bos taurus, pH 7, Thermal, UV spectroscopy, Sodium phosphate 50 mM, reversible: Yes): 79.4 °C
Tm (Bos taurus, pH 7, Thermal, UV/visible spectrophotometer, Potassium phosphate 50mM): 67.6 °C
denaturant m value [14]: 0.93 kcal/mol/M
unfolding free energy [14]: 6.57 kcal/mol
unfolding enthalpy (van 't Hoff) (Bos taurus, pH 7.2, Thermal, Absorbance, Phosphate 20 mM, reversible: yes): 82.5 kcal/mol and 33.9 kcal/mol
Tm [15]: 70.7 °C
heat capacity change of unfolding [15]: 0.13 kcal/mol/K

B11: Growth factor receptor-bound protein 2 wild type, Q08012 (protein)
chain: MEAIAKHDFSATADDELSFRKTQILKILNMEDDSNWYRAELDGKEGLIPSNYIEMKNHDWYYGRITRADAEKLLSNKHEGAFLIRISESSPGDFSLSVKCPDGVQHFKVLRDAQSKFFLWVVKFNSLNELVEYHRTASVSRSQDVKLRDMIPEEMLVQALYDFVPQESGELDFRRGDVITVTDRSDENWWNGEIGNRKGIFPATYVTPYHS
denaturant m value [16]: 3.48 kcal/mol/M
unfolding free energy [16]: 1.47 kcal/mol
denaturant m value [17]: 1.39 kcal/mol/M
unfolding free energy [17]: 2.18 kcal/mol
Tm [18]: 60.1 °C
unfolding enthalpy (van 't Hoff) [18]: 33.1 kcal/mol

B12: Single-stranded DNA-binding protein wild type, P03695 (protein)
chain: MFKRKSTAELAAQMAKLNGNKGFSSEDKGEWKLKLDNAGNGQAVIRFLPSKNDEQAPFAILVNHGFKKNGKWYIETCSSTHGDYDSCPVCQYISKNDLYNTDNKEYSLVKRKTSYWANILVVKDPAAPENEGKVFKYRFGKKIWDKINAMIAVDVEMGETPVDVTCPWEGANFVLKVKQVSGFSNYDESKFLNQSAIPNIDDESFQKELFEQMVDLSEMTSKDKFKSFEELNTKFGQVMGTAVMGGAAATAAKKADKVADDLDAFNVDDFNTKTEDDFMSSSSGSSSSADDTDLDDLLNDL
Tm [19]: 49 °C
unfolding enthalpy (calorimetric) [19]: 84 kcal/mol

B13: wild type, Q8VD40 (protein)
chain: MDGDGDPESVGQPEEVSPEEACAEEACAEGDRPGEEEEEEQEELEEAAYLAELPEALLLRVLAQLPAAELVQACRLVCLRWKELVDGAPLWLLKCQQEGLVPEGCGEEEERDHWQRFYFLSKRRRNLLRNPCGEEDLEGWCDVEHGGDGWRVEEIPGDSGVEFPQDDSVRKYFASSFEWCRKAQVVDLQAEGYWEELLDTTQPAIVAKDWYSGRSDAGCLYELSVKLLSEHEDVLAEFNTGQVPVSPDSEEGGWTEISHTFTDYGPGVRFVRFEHGGQDAVYWKGWFGARVTNSSVWVEP
denaturant m value [20]: 0.79 kcal/mol/M
unfolding free energy [20]: 2.64 kcal/mol
Tm [21]: 57 °C
unfolding enthalpy (calorimetric) [21]: 141 kcal/mol

B14: Regulatory protein cro wild type, P03036 (protein)
chain: MQTLSERLKKRRIALKMTQTELATKAGVKQQSIQLIEAGVTKRPRFLFEIAMALNCDPVWLQYGTKRGKAA
denaturant m value [22]: 1.05 kcal/mol/M
denaturant midpoint (higher = more stable) [22]: 3.35 M
unfolding free energy [22]: 3.5 kcal/mol
denaturant m value [23]: 1.02 kcal/mol/M
denaturant midpoint (higher = more stable) [23]: 3.5 M
unfolding free energy [23]: 3.6 kcal/mol
Tm [24]: 46.4 °C
unfolding enthalpy (calorimetric) [24]: 53.8 kcal/mol

B15: Lysozyme C, milk isozyme wild type, P81708 (protein)
chain: KIFSKCELARKLKSMGMDGFHGYSLANWVCMAEYESNFNTQAFNGRNSNGSSDYGIFQLNSKWWCKSNSHSSANACNIMCSKFLDDNIDDDIACAKRVVKDPNGMSAWVAWVKHCKGKDLSKYLASCNL
denaturant m value [25]: 2.43 kcal/mol/M and 1 kcal/mol/M
unfolding free energy [25]: 2.84 kcal/mol and 5.27 kcal/mol
denaturant m value (Canis lupus familiaris, pH 4.5, 25 °C, GdnHCl, CD, acetate 50 mM): 2.48 kcal/mol/M and 1 kcal/mol/M
Tm [26]: 39 °C
unfolding enthalpy (calorimetric) [26]: 44.6 kcal/mol

From FireProtDB
